# Measurements as given in IntAct's records for PubMed 18627465.
# B1: Complement factor H (Homo sapiens), P08603 (parent)
# chain: MRLLAKIICLMLWAICVAEDCNELPPRRNTEILTGSWSDQTYPEGTQAIYKCRPGYRSLGNVIMVCRKGEWVALNPLRKCQKRPCGHPGDTPFGTFTLTGGNVFEYGVKAVYTCNEGYQLLGEINYRECDTDGWTNDIPICEVVKCLPVTAPENGKIVSSAMEPDREYHFGQAVRFVCNSGYKIEGDEEMHCSDDGFWSKEKPKCVEISCKSPDVINGSPISQKIIYKENERFQYKCNMGYEYSERGDAVCTESGWRPLPSCEEKSCDNPYIPNGDYSPLRIKHRTGDEITYQCRNGFYPATRGNTAKCTSTGWIPAPRCTLKPCDYPDIKHGGLYHENMRRPYFPVAVGKYYSYYCDEHFETPSGSYWDHIHCTQDGWSPAVPCLRKCYFPYLENGYNQNYGRKFVQGKSIDVACHPGYALPKAQTTVTCMENGWSPTPRCIRVKTCSKSSIDIENGFISESQYTYALKEKAKYQCKLGYVTADGETSGSITCGKDGWSAQPTCIKSCDIPVFMNARTKNDFTWFKLNDTLDYECHDGYESNTGSTTGSIVCGYNGWSDLPICYERECELPKIDVHLVPDRKKDQYKVGEVLKFSCKPGFTIVGPNSVQCYHFGLSPDLPICKEQVQSCGPPPELLNGNVKEKTKEEYGHSEVVEYYCNPRFLMKGPNKIQCVDGEWTTLPVCIVEESTCGDIPELEHGWAQLSSPPYYYGDSVEFNCSESFTMIGHRSITCIHGVWTQLPQCVAIDKLKKCKSSNLIILEEHLKNKKEFDHNSNIRYRCRGKEGWIHTVCINGRWDPEVNCSMAQIQLCPPPPQIPNSHNMTTTLNYRDGEKVSVLCQENYLIQEGEEITCKDGRWQSIPLCVEKIPCSQPPQIEHGTINSSRSSQESYAHGTKLSYTCEGGFRISEENETTCYMGKWSSPPQCEGLPCKSPPEISHGVVAHMSDSYQYGEEVTYKCFEGFGIDGPAIAKCLGEKWSHPPSCIKTDCLSLPSFENAIPMGEKKDVYKAGEQVTYTCATYYKMDGASNVTCINSRWTGRPTCRDTSCVNPPTVQNAYIVSRQMSKYPSGERVRYQCRSPYEMFGDEEVMCLNGNWTEPPQCKDSTGKCGPPPPIDNGDITSFPLSVYAPASSVEYQCQNLYQLEGNKRITCRNGQWSEPPKCLHPCVISREIMENYNIALRWTAKQKLYSRTGESVEFVCKRGYRLSSRSHTLRTTCWDGKLEYPTCAKR
# partner: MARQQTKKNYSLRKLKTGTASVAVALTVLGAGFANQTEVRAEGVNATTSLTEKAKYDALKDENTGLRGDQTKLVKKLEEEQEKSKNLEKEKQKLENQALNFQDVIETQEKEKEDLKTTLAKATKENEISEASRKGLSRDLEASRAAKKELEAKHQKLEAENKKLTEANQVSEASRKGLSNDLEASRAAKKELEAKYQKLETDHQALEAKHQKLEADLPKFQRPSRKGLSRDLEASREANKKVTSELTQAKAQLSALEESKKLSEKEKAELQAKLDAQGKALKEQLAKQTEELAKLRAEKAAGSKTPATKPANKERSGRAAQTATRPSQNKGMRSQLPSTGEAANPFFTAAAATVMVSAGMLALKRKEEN
# Variants of: B1
# Details: with mx_strp9 ennX
row,Variant,effect of a mutation on the interaction
1,Y402H,decreasing interaction strength
